Ends that are not written are not given here. * marks the point of attachment. For = O=C*
T1: human formyl peptide receptor like-1 (FPRL-1) receptor (human, UniProt P25090 1-351)
T1 sequence (looked up): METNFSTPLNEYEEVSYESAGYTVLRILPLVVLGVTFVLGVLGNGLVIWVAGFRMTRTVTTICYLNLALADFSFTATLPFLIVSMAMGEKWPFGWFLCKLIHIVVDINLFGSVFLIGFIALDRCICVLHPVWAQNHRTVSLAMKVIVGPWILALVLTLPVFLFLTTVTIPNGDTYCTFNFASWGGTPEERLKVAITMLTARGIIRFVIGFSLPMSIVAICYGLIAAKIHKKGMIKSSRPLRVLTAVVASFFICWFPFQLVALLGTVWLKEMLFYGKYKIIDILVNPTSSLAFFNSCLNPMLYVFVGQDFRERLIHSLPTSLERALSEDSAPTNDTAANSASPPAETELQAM

T2: human formyl peptide receptor FPR1 (human, UniProt P21462 1-350)
T2 sequence (looked up): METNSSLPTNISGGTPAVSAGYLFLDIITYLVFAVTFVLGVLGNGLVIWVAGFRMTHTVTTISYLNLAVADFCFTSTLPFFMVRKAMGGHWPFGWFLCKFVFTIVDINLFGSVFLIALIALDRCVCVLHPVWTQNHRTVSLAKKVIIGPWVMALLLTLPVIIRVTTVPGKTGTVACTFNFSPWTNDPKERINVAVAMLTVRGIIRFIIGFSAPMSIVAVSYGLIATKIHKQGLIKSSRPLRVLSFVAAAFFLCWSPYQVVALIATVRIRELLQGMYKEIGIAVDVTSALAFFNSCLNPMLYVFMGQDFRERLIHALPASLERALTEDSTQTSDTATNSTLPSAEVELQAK

B1: peptide DM-1 (peptide)
peptide: PPFFFRPVGMF
B2: peptide MMWLL, Met-Met-Trp-Leu-Leu (peptide)
peptide: MMWLL
B3: peptide A5, Ser-Leu-Leu-Trp-Leu-Thr-Cys-Arg-Pro-Trp-Glu-Ala-Met (peptide)
peptide: SLLWLTCRPWEAM
B4: peptide AF-2 (peptide)
peptide: SMCPTASAWVWLM
B5: f-A5, N-terminally formylated derivative of peptide A5 (peptide)
peptide: For-SLLWLTCRPWEAM
B6: fMLP, formyl-MLF (peptide)
peptide: For-Met-Leu-Phe
B7: peptide AF-3 (peptide)
peptide: RFPKNCHLRPPRMILFTALV
B8: peptide AF-1 (peptide)
peptide: CPAAVLWRWVPM
B9: peptide MMK-1 (peptide)
peptide: LESIFRSLLFRVM

How the values were obtained:
Test in all cases: cell-based or functional assay
[1] = molecular target: T1, human formyl peptide receptor like-1 …
[2] = molecular target: T2, human formyl peptide receptor FPR1
[3] = molecular target: T1, human formyl peptide receptor like-1 …; remark: listed apart in the source
[4] = molecular target: T2, human formyl peptide receptor FPR1; remark: listed apart in the source

Row | Binder | EC50(nM), transient Ca2+ flux in HEK293/Gα16 cells expressing FPRL-1 [1] [nM] | EC50(nM), transient Ca2+ flux in HEK293/Gα16 cells expressing FPR1 [2] [nM] | also measured
1 | B1 | 2400 | > 10000 | –
2 | B2 | 80 | < 0.3 | –
3 | B3 | 35 | > 10000 | EC50, calcium mobilization in indo-1 loaded human neutrophils [3]: ~300 nM; apparent EC50, induction of β-galactosidase activity by synthetic peptide added to yeast strain CY6565 [3]: ~5000 nM; induction of β-galactosidase activity (FUSI-lacZ, yeast) [3]: 7 fold; stimulation over background levels of β-galactosidase (fus1-lacZ, yeast) [3]: 8 fold
4 | B4 | 87 | 690 | –
5 | B5 | 2 | 10 | EC50 against that of A5, calcium mobilization in indo-1 loaded human neutrophils [3]: 10 fold lower EC50 than A5; EC50, calcium mobilization in HEK293/Gα16 cells expressing FPR1 [4]: 0.1 nM
6 | B6 | 40 | < 0.3 | EC50, transient calcium mobilization in HEK293/Gα16 cells expressing FPRL-1 [3]: 400 nM; EC50, calcium mobilization in human neutrophils [4]: < 0.2 nM
7 | B7 | 650 | 380 | –
8 | B8 | 16 | 5000 | –
9 | B9 | < 2 | > 10000 | –
